The results in this text go back to a protein production outcome set (Wang et al. 2014).

The series is described as follows: label from the status in PepcDB records.
For the sequence “MPGIDFDALYRGESPGEGLPPITTPPWDTKAPKDNVIGWHTGGWVHGDVLDIGCGLGDNAIYLARNGYQVTGLDISPTALTTAKRRASDAGVDVKFAVGDATKLTGYTGAFDTVIDCGMFHCLDDDGKRSYAASVHRATRPGATLLLSCFSNAMPPDEEWPRSTVSEQTLRDVLGGAGWDIESLEPATVRRELDGTEVEMAFWNVRAQRRGS”, the protein production entry was “failed”.
For “MPGIDKLPIEETLEDSPQTRSLLGVFEEDATAISNYMNQLYQAMHRIYDAQNELSAATHLTSKLLKEYEKQRFPLGGDDEVMSSTLQQFSKVIDELSSCHAVLSTQLADAMMFPITQFKERDLKEILTLKEVFQIASNDHDAAINRYSRLSKKRENDKVKYEVTEDVYTSRKKQHQTMMHYFCALNTLQYKKKIALLEPLLGYMQAQISFFKMGSENLNEQLEEFLANIGTSVQNVRREMDSDIETMQQTIEDLEVASDPLYVPDPDPTKFPVNRNLTRKAGYLNARNKTGLVSSTWDRQFYFTQGGNLMSQARGDVAGGLAMDIDNCSVMAVDCEDRRYCFQITSFDGKKSSILQAESKKDHEEWICTINNISKQIYLSENPEETAARVNQSALEAVTPSPSFQQRHESLRPAAGQSRPPTARTSSSGSLGSESTNLAALSLDSLVAPDTPIQFDIISPVCEDQPGQAKAFGQGGRRTNPFGESGGSTKSETEDSILHQLFIVRFLGSMEVKSDDHPDVVYETMRQILAARAIHNIFRMTESHLLVTCDCLKLIDPQTQVTRLTFPLPCVVLYATHQENKRLFGFVLRTSSGRSESNLSSVCYIFESNNEGEKICDSVGLAKQIALHAELDRRASEKQKEIERVKEKQQKELNKQKQIEKDLEEQSRLIAASSRPNQASSEGQFVVLSSSQSEESDLGEGGKKRESEA” the value was “failed”.
On to “MPGKKQEVQEELLEEQLEKAYQGRINNIKESFAGVLSVLKTANTKKLERITARSHNYLGLLHMIQGNHIKSITHSRQALEYFQRVQSLKDIADAKFNIASSLYKTDNFHDGLKGLLECRQIYKSIGEGRSECRSLKSIATIYEYWSDVNKAFLIYQECIDLATRHGDLAMLSNVYNPMSGLYLKRGDIETATKLSDKSIAIKKKIKDERGLAYSIYGKGKVFFAQQKFAQAETYFLQSLELQQKFGDKLGAGMVLNKLGLTYVEQKKYLQAEKILKQAVSLAEKHNVKVNVYKSYYSLYTLYKLQHKESNALQCLEQFVLHKENNVQSHTSDIIRSYEAANEIYRLEKDTKAQIDYLEIVQKKNTELDSFFYRVSHDLKGPISSLLGLNELIEKEQFDGEALKYFNMYKKLSTRIDAIVMDLITITRISSDKIVPVKIDFMQLIEDCIHSYAYFDNFEHIQFNIEVEEGISFQSEWVIVNTILQNLIENSIKYMRHDVKKPYVFIQVYTQGQMLCIKVTDNGQGISEEYQEKIYEMFFRANDKADGSGLGLYILKRAVERLQGTVSLKSKPGKGAAFTVCIKGE”, for which the protein production result was “failed”.
For “MPGKREMQKCSLITVLSLSVLMLAGCTTTYTMTTRTGEIIETQGKPEVDTATGMTKYADVYGYHRVMKTSEIVQTTEGASKLDWLEHHHHHH”, the protein production entry is “not failed”.
For “MPGTGLPIRGRRDPETIETRCLNNDQDSRLALIHAWLQTLPGSLGLRPETMEPASSDASFRRYFRLQAAAGTLIVMDAPPPHEDVRPFVHIDGLLREAGVNVPEIVAQDAGQGLLLLSDLGQDTFYQRIRAGISDAQLQSMYRDTLATLVRLQQASTAGLPAYDGARLAAELELFPEWYVGRHHGVTLDDKTAAALRQIFGLLAAEGDTGHRVLVHRDFHSPNLMVCDEPRYGPNPGVIDFQDALAGPLTYDLASLVTDARTTWEEPQQLDWAIRYWELARAAGLPVDADFAQFHRAYEWTGLQRNLRILGVFARLNHRDGKSIYLSHMPRVSGYVRQVAQRYGAFAPLLRLLDKLDDRQVQVGYTF” the value was “failed”; for “MPGTNNEATRKEEVKKIVENRRRKAELIREQQIKKRNTIIAIGVGILVVLILVMVLAKSCSSGKKPAKTSATTAKQITTVAQTTVQETTTAEEYMYTTDVLNLRKSASAKSKLITQIGAGKKVQVISENGKWCQIKYGKDTGYVMKKYLSYSNMLD”, “failed”; for “MPGVTVKDIDQHAVTKAVAVFLKKTGKLKVPDQMDIVKTAKFKELAPYDPDWFYVRCASILRHLYHRSPAGVGSITKIYGGRKRNGVHPSHFCRAADGAARKALQALEHARLVEKHPDGGRKLSSIGQRDLDRIANQIVFKQRDAAKQTGPIVISK”, “failed”.
The entry for “MPHAARSDAAALRAPAADDGAYGKPAIALHWIIALLIFAAFGLGLYMTDIPGFTPTKLKLYSYHKWAGITVLILAVLRVLWRLTHPAPAPVAGMPAWQQKAAEGAHIVLYLLILAVPLTGYLLSVAAGIKVVYLGLWELPMPFDKSDALKEIFQVAHEWLNWTMATIVVLHILAALKHHIVDSDGTLRRMLPFLR” is “failed”; for “MPHAVQGQPENAVHPPQGTAWPGLEPPEGFLMANPRLSRRHVRRMRSERPPPTTRPPDWRFPMKSTLNLLLTVSLALSGAGLAQTAPNVPTQAAPTTAAPANAAQLAAEARDLTNRARTTYPAGSASIDQPLWKQAADRAEAAVSAAPNNPDVLRLRAQIYTEVGFWKQAESSWRAYFAVAPVAAGQNEARAAGNVQYNLGYAAYTRGQSAQAAAYFKACLTLDPQSVPCATWAARTALESGDYALAQNLYTQALSLAPTDKTLNYFAQVARNASTYGPAATQAFSRAYASLDAGRRAEALAGFQEAARSAPNFPEAQREAGRLALEAGDTGAALSAYQALAALPGATDSDRYNLGLAQEGQQYGLRAVQTFRTAYGKYSAGDKAGAEAGFLQATTASANYGKAWAWLGRVRYEAKNYAGAAEAYGRAVALDPGDKTSAYFLKLAQQGK” it is “failed”; for “MPHKLLPWLAIASAMSAFTLQAQPMPDTELLMGSYTQGKSEGIYRFGFNSQTGLIDAKPLQVIKSDNPSWLTLSKDQRHLFAVNENGPGQKDVVGKVSSFAIDPKTRQITPINQVQSRGEEPTHSSLSYDGRYLFVANYAVNPDPGGALTVVPVGKDGTLSEAVQVLPLGPGSKVNSERQLSSHVHLAVPTPDNKYVVSADLGADKLFVYRYDANQAKPLQPAKVPTVQLPGGSGPRHTLFSADGKHAWLVLEMTAQVAVFDYHDGGFKQTQLVDMKNKGVEEKNGGGALHTSPDGKFLYVTNRGDANQVVVFRIDQASGKLEEIQRRSLEGKEPREFAFDPTGKFMLFANQKSNQIVTVRRDPQSGMIGDTVQKFDADSPSYLRFLTEK” it is “failed”.
For “MPHPFVYHDCPMSRLLFRYICTETAVPFALGLTVFTFVLLMGRLLKLAEMVFARGVPFLDVTRLILYMLPSFFLVAIPMAFLLAVLLAMGRLSADSEVTAMKASGMSIGTIAVPVIAFGVITYAATTFVSVYALPWGNTAFKKFLHGVIETRAAMSITEKVFNDEFPGLVIYVDGFDPKSGRISGILIHDERNPDEPSTIFAASGQLATNPEERIVRLRLNNGGIHRGIGTGGYRLVEFTSYDLSIALQREQQKARLNEEDMTLGELLARMKSPGEQPKLVREMHFELHKRFALPFACVVFAVIAVPLGIQNQRSGRAGGFAAGIILLMLYYILMSAGKTVNEKGIAPAFVAVWIPNVLFLGLGIFLLKRAALDRAIPLAEYVTTALAWVRHRFERRKT” the value was “failed”; for “MPHSTTEPRRDMPDALISIVIPCRNEAANLPLLIDEIEAAMAGRHFELIIVNDGSTDETAAVLTEQAALRSFPVRELRHQKSAGQSLSVRSGAWAARGGIVATIDGDGQNDPQYIPVLVDALRQAGPDFGAAQGQRLKRRDSKVKQLASRFANWLRNAILHDETRDTGCGLKAVHTEILRKLPFFDGTHRFVPALVIQEGYRVVHCDVVDRSRRHGKSNYGIFDRGLQGALDLGGVWWLRRRRRRMPKVEEIKRV”, “failed”; for “MPIAGIPYTEIVMAIVAFVLGFLVGYLIKNVIKIGIIVLAIIVILIAIGVVSPHTVVSGLQSMGVYATQAEQYVSRIINYLPYNSILFIIGFVIGLVKG”, “failed”.
With “MPIRDDISWPPSAVCSVSLILHLPGRFGHVSVAHLLLDHGADVNAQNRLGASVLTVASRGGHLGVVKLLLEAGAFVDHHHPSGEQLGLGGSRDEPLDITALMAAIQHGHEAVVRLLMEWGADPNHAARTVGWSPLMLAALTGRLGVAQQLVEKGANPDHLSVLEKTAFEVALDCKHRDLVDYLDPLTTVRPKTGQAACPPWLHRGPQIVFMWLKLRIALLEGHAELRVQPCRPLRLRKWCA”, the protein production result is recorded as “not failed”.
For the sequence “MPKIRIRKFWPSGAGTVPGVLLIALALGCVGHRAKFADETFSSDEAEIRSAVEPLPPKAQLVYLVLAGELAGQRGRYEVALEHYLQAARLSRDGRLAERAMQIALFIKKYPEAVESVALWLKAEPRHAGARRMATLLYLKEGRRDEAVTQMKVLLTLPDADLENTLIELVKVLGNEVPRQDATEFMDALLRAFPAMADLHFAAALLAANQGEFQQALSETEEALKLHPDWGRARVLQAQVMAQMGDSATAGDLIQRALKRDPDNARLRLIYSQFLIKSGDIEGARRELERIVAKEPGNQDARFGLGLALIDLGRLDAARREFAALAASEKWRVQAYFYLGLIDARKGRLNEALDWFDRVTTGPTEFDARVNGITVLISLGRLTEARTRLADIRRRFPNESVRLYLLEAELLSKNRDYEDAFNLLTDALGENPGQSDLLYARALVAENLGRFDVLEADLRQVLEKSPDDPNALNALGYTLVERGERLDEAKGYLDRAIRLKPDDPAILDSYGWLLYRLRKYAEAIEYLRRAYDKVQDPEIASHLGEVLMESGRRQEARKILREAWKKAPEHEDMQRIRARYPELLAP”, the protein production entry is given as “failed”.
For “MPKKGSRPDRPSRRCARMTSTVPALGTRSAEGSALQAVLLDMDGTLVDTEGFWWDVEAEVFAALGHPLDESWRHVVVGGPMARSAGFLIEATGADITLAELTVLLNDGFEARIGRTLPLMPGAARLLAELAAHEIPTALVSASHRRIIDRVLTSLGSQHFALTVAGDEVARTKPFPDPYLLAASGLGAEPARCAVIEDTATGVAAAEAAGCRVVAVPSVAPIAPAARRTVVTSLEEVDLPFLRGLMTEMR” the value was “failed”; for “MPKKVVPEEARRRRRPTRQGAVLSEGLIVRTALRMLREHGTGGLTARRLGAALGADPSTLYRYFAGMDDLARAVGNELMGQALDGWTAQGDWRADLRSLGLALHSSYLAHPQAAVLTASRVSGRPREIAVDEAILGLLRGAGLTDRAAVRFYHAFIDLALAFAALDAGSLALPEEARRSDEDMWGTTYARLPAETHPNIAATAERLAARMPHSAYPVVLDTLLDGIAAELTGTAPEM”, “not failed”; for “MPKPLRCITIAFTDLPNEYKIVLGYLTYHSGRLFNQALYSIKTKQAKVNTYDLYNKLKDNSLHLKNLQSRCAQIVLDELVRAFKNWFEFLHNPEKFKGQEVKPPKFRPKNKPHRTITYDQTGFKVVGTKIRLSLSKALRQWLKEKHGIELKYLWLDTGLELDERLIKNIQIVPKANAKEFELHIIYEKPQNGEKLLKQDKVMVLDPNSSNFFAIVIEGIPQPYIIDGNGLKSLLRKYLKKIASLQSRLEGAKKKGFLTHFLEERISRLWLKVKRLLKHYAHTISNLILELALKYGVRKIYIGDAARNKNKESKLSSVADQIWSLLPHGKVKEYLEYKAKEYGIEVEYISEAYTSGVDSSVEGAVNKETYTPEARVKRGLFRTRLLGFLNADVNACRNLLKKLGKFDLISGILRPIRLRVFFKLRESSSAIPLYGGIGRSRGGVNLPVVVRHSKEGVNPPEAPHL”, “failed”.
For “MPKSADQGGSPASASHEALRHILDAGASMGGLQGLDEAQQQALYAIGHGAYEQGRYADALKMFCLLVACDPLEARYLLALGAAAQELGLYEHALQQYAAAAALQLDSPRPLLHGAECLYALGRRRDALDTLDMVLELCGSPERAALRERAELLRRSYARAD” the value was “failed”.
